The results in this text go back to patent US20220177604A1 (ARGENX, published 2022).

The target of test [1] is T1, recombinant Motavizumab human IgE (rMota-hIgE) (human, UniProt P01854 1-428).
T1 construct: also called Recombinant IgE (argenx)
Kind of test: ELISA: rMota-hIgE captured on coated RSV-F, washes at pH 7.4, anti-human Fc-HRP; EC50 unit inferred, x axis in pM.
Description: (§1) Briefly a Maxisorp plate was coated with recombinant human respiratory syncytial virus protein F (RSV-F) (0.5 μg/mL), then blocked with PBS with 3% BSA and 0.05% Tween. […] After several washing steps at pH 7.4 or pH 5.5, detection of the bound mAbs was carried out with an anti-human Fc-HRP antibody.

Test [2] concerns the target T1, recombinant Motavizumab human IgE …. The test is described as follows: ELISA: rMota-hIgE captured on coated RSV-F, washes at pH 5.5, anti-human Fc-HRP; EC50 unit inferred, x axis in pM; curve reaches only OD450 about 0.85 at about 670 pM.
Description: as §1
For test [3] the target is unchanged. Kind of test: ELISA: rMota-hIgE captured on coated RSV-F, washes at pH 5.5, anti-human Fc-HRP; EC50 unit inferred, x axis in pM.
Description: as §1
Test [4] has as its target T2, human immunoglobulin E (hIgE) (human, UniProt P01854-1 1-428).
T2 construct: also called human IgE; Native IgE (Abcam)
Kind of test: SPR, Fab periplasmic extract, pH 7.4.

Test [5] deals with T1, recombinant Motavizumab human IgE …. The test is described as follows: SPR, Fab periplasmic extract, pH 7.4. (Surface plasmon resonance follows binding to a sensor surface in real time, without labels.)
For test [6] the target is unchanged. Kind of test: hIgE binding ELISA. On the technique in general: ELISA stands for enzyme-linked immunosorbent assay.
Description: The ratio of OD450 measured at pH 7.4 versus OD450 measured at pH 6 was calculated for each of the CL-2C antibodies.
For test [7] the target is unchanged. The test is described as follows: hIgE binding ELISA. The source holds these as a separate data set.
Description: as §1
Test [8] addresses T2, human immunoglobulin E (hIgE). The test is described as follows: SPR (Biacore) on hIgE.
Description: The ratio of KD measured at pH 5.5 versus KD measured at pH 7.4 was calculated for each of the CL-2C antibodies.
Test [9] addresses T1, recombinant Motavizumab human IgE …. Kind of test: hIgE binding ELISA, pH 5.5.
Description: as §1
Test [10] shares this target. Kind of test: hIgE binding ELISA, pH 7.4.
Description: as §1
Test [11] concerns the target T2, human immunoglobulin E (hIgE). The test is described as follows: competition ELISA, hIgE to hFcεRIα.
For test [12] the target is unchanged. Kind of test: SPR competition.
For test [13] the target is unchanged. Kind of test: SPR competition. This is another data set of the same source.
Description: (§2) For this purpose, a competition approach was set-up. […] The assay was performed in HBS-EP pH7.4 or HBS-EP pH 5.5. Raw data were analyzed via BIA evaluation software with a blank subtraction (2-1). […] The IC50 values of each compound were calculated with a non-linear regression (log(agonist) vs. response Variable slope (four parameters)).
The target is the same in test [14]. Kind of test: competition ELISA.
Description: (§3) The IC50 values of each compound were calculated with a non-linear regression (log(agonist) vs. response Variable slope (four parameters)).
Test [15] has the same target. Kind of test: SPR competition, hIgE over hFcεRIα chip, pH 5.5.
Description: (§4) The assay was performed in HBS-EP pH7.4 or HBS-EP pH 5.5. Raw data were analyzed via BIA evaluation software with a blank subtraction (2-1). […] The IC50 values of each compound were calculated with a non-linear regression (log(agonist) vs. response Variable slope (four parameters)).
(§5) Raw data were analyzed via BIA evaluation software with a blank subtraction (2-1). […] The IC50 values of each compound, calculated with a non-linear regression (log(agonist) vs. response Variable slope (four parameters)).
Test [16] shares this target. The test is described as follows: SPR competition, hIgE over hFcεRIα chip, pH 7.4.
Description: as §4, §5
Test [17] has the same target. Kind of test: SPR competition, hIgE + mAb over hFcεRIα chip, pH 7.4.
Description: as §2
Test [18] has the same target. The test is described as follows: competition ELISA, biotin-hIgE to coated hFcεRIα, pH 6.
Description: as §3
The target is the same in test [19]. Kind of test: competition ELISA, biotin-hIgE to coated hFcεRIα, pH 7.4.
Description: as §3
For test [20] the target is unchanged. Kind of test: SPR competition, hIgE + mAb over hFcεRIα chip, pH 6 (text: pH 5.5).
Description: as §2
In test [21] the target is T1, recombinant Motavizumab human IgE …. Kind of test: ELISA: rMota-hIgE captured on coated RSV-F, washes at pH 5.5, anti-human Fc-HRP; EC50 unit inferred, x axis in pM. The source holds these as a separate data set.
Description: as §1
Test [22] has the same target. Kind of test: ELISA: rMota-hIgE captured on coated RSV-F, washes at pH 7.4, anti-human Fc-HRP; EC50 unit inferred, x axis in pM. The source holds these as a separate data set.
Description: as §1
For test [23] the target is unchanged. The test is described as follows: ELISA: rMota-hIgE captured on coated RSV-F, washes at pH 5.5, anti-human Fc-HRP; EC50 unit inferred, x axis in pM. This is another data set of the same source.
Description: as §1
For test [24] the target is unchanged. Kind of test: ELISA: rMota-hIgE captured on coated RSV-F, washes at pH 7.4, anti-human Fc-HRP; EC50 unit inferred, x axis in pM. The source holds these as a separate data set.
Description: as §1

By EC50 is commonly meant the concentration at which the effect is half-maximal. Broadly, the koff is a measure of how fast the partners let go of each other. As a reminder, the IC50 is the concentration at which inhibition is half-maximal.

Numbering of substitutions follows the chain as printed.

T1 sequence (P01854 other isoform, or with tags, fused parts or gaps limits assumed, form in doubt): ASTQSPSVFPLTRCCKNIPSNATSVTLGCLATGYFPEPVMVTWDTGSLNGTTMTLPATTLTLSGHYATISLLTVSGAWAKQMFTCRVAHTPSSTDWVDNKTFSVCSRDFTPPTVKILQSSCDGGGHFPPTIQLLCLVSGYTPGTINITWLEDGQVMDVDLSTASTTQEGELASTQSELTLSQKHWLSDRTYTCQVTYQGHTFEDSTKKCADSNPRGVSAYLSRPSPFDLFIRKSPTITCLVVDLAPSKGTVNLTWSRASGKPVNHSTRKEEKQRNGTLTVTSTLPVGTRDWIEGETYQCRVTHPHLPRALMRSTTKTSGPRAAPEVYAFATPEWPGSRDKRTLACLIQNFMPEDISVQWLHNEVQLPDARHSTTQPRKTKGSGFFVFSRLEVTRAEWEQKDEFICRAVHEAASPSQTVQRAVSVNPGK
T2 sequence (P01854 whole entry): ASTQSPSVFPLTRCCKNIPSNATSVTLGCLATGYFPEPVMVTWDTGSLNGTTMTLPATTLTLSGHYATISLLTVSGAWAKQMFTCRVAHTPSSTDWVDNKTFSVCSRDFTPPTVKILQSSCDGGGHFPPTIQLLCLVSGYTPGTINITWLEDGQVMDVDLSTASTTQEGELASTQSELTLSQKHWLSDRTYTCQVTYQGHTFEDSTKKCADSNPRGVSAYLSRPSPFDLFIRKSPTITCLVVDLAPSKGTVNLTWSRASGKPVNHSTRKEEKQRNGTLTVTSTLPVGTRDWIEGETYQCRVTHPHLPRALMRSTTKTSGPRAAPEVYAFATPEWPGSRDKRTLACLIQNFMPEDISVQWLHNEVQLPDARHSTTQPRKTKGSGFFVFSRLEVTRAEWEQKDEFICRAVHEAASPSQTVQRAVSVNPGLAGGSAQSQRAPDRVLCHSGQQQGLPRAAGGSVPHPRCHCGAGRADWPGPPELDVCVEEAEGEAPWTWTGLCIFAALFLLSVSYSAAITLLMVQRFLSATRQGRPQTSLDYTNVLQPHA

B1: 18E2His2-hIgG1-WT (antibody, V domains shown)
VH: QLQLVESGGGLVQPGGSLRLSCAASGFTFSSYVMHWVRQAPGKGLEWVSSIYHDGSHTYYADFVKGRFTISRDNAKNTLYLQMNSLKSEDTAVYYCASGTSYSGSYYYTDPFFGSWGQGTQVTVSS
VL: NFMLTQPSALSVTLGQTARITCQGDRLGSRYIHWYQQKPPQAPVLVIHDDDRRPSGIPERFSGSSSGGTATLTISGAQAEDDGDYYCQSADSSGNPVFGGGTHLTVL
B1: the EC50 in test [1] is 0.365 nM; in [2], around 4210 nM.

B2: 18E2His2-hIgG1-ABDEG (antibody, V domains shown)
VH: B1 VH
VL: B1 VL
notes: human IgG1 heavy chain with ABDEG mutations (pUPEX32a); also called 18E2His2-ABDEG
For B2, the 50% effective concentration (EC50) in test [3] stood at 0.616 nM; in test [1], 0.121 nM.

B3: omalizumab variant Fab VH15 / VL3 (Fab, V domains shown)
VH: EVQLVESGGGLVQPGGSLRLSCAVSGYSITSGHRWEWIRQAPGKGLEWVASIHYDGSTNYNPSVKGRITISRDDSKNTFYLQMNSLRAEDTAVYYCARATHYFGHWHFAVWGQGTLVTVSS
VL: DIQLTQSPSSLSASVGDRVTITCRASQSVDYDGDSYMNWYQQKPGKAPKLLIEWGSYLRSGVPSRFSGSGSGTDFTLTISSLQPEDFATYYCQQNAEDPYTFGQGTKVEIK
With B3, in test [4], the “Off-rate improvement ratio (against VHWT VLWT)” value is 14.8, the “R0 (RU)” value was 235 RU and the off-rate constant (koff) was determined as 0.00035 s⁻¹. For the same molecule, in [5], the “Off-rate improvement ratio (against VHWT VLWT)” value was found to be 18, the “R0 (RU)” value stood at 285 RU and the dissociation rate constant (koff) came out at 0.000269 s⁻¹.

B4: CL-2C mAb 37 (antibody, V domains shown)
VH: QVQLVQSGAEVMKPGSSVKVSCKASGYTFSWYHLEWVRQAPGHGLEWMGEIDPGTFTTNYNEKFKARVTFTADTSTSTAYMELSSLRSEDTAVYYCARFSHFSGSNHDYFDYWGQGTLVTVSS
VL: EIVMTQSPATLSVSPGERATLSCRASQSIGTNIHWYQQKPGQAPRLLIYYASESISGIPARFSGSGSGTEFTLTISSLQSEDFAVYYCQQSWSWPTTFGGGTKVEIK
notes: also called VKWT + VH33H100CH
Turning to B4, the “Ratio OD450 pH 7.4/pH 6” value in [6] is 10.3. For the same molecule, the “Ratio EC50 pH 5.5/7.4” value in test [7] is 2.5. Also, the “Ratio EC50 pH 7.4/5.5” value in test [7] turned out to be 0.4. Also, the “KD Ratio pH 5.5/pH 7.4” value in test [8] came out at 11.1. The EC50 in test [9] is 0.0373 µg/mL; in test [10], 0.0149 µg/mL. The molecule further displayed a concentration for half-maximal inhibition (IC50) in [11] of 0.483 nM.

B5: 3D1 human IgG1 mAb (antibody, V domains shown)
VH: QLQVVESGGGLVQPGGSLRLSCAASGFTFSSYYMSWVRQAPGKGLEWVSSIYSDGRGSKTFYADSVKGRFTISRDNAKNTLYLQMNSLKSEDTAVYFCAKDLLVAARGSMDYWGQGTQVTVSS
VL: NFMLTQPSAVSVSLEQTARITCQGGTLGSYGAHWYQQKPGQAPVLLIYGDNSRPSGIPERFSGTRSGGTATLTISGAQAEDEADYYCQSFDYSGNAVFGGGTHLTVL
notes: human IgG1 and human light chain constant domains; also called clone 3D1; WT 3D1
On to B5, for which, in test [12], the “ratio between IC50 at pH5.5 and pH 7.4” value was determined as 8.6. Also, the “Ratio pH 6/7.4 (IC50)” value in test [13] was determined as 0.8; in [14], 1.3. In addition, the concentration for half-maximal inhibition (IC50) in [15] was 11.7 µg/mL; in test [16] it was 1.36 µg/mL; in test [17], 5.31 nM; in test [18], 118 nM; in test [19], 90.3 nM; in test [20], 4.44 nM.

B6: 18B9His-hIgG1-WT (antibody, V domains shown)
VH: QVQLVESGGGLVQPGGSLRLSCAASGFTFSSYVMSWVRQAPGKGLEWVSSIYSDGSHTYYADSVKGRFTISRDNAKNTLYLQMNSLKSEDTAVYYCAKNLEHYSGSYYYTDPRYDYWGQGTQVTVSS
VL: SSALTQPSALSVTLGQTAKITCQGGSLGSSYVHWYQQKPGQAPVLVIHDGDSRPSGIPERFSGSSSGGTATLTISGAQAEDEDDYYCQSADSSGNAVFGGGTHLTVL
notes: also called VL18B9_Y49H; 18B9-His-WT
Turning to B6, the values for the EC50 in test [21] and in test [22] were 0.115 nM and 0.142 nM, respectively.

B7: 13E4-hIgG1-ABDEG (antibody, V domains shown)
VH: B1 VH with Q1E, H35S
VL: B6 VL with S1H, L4V, S30N, V32A, H33Y, H48Y, G50D, D83G, S93N
notes: human IgG1 heavy chain with ABDEG mutations (pUPEX32a); also called 13E4-ABDEG
Turning to B7, the EC50 in test [23] turned out to be 0.122 nM; in test [24], 0.11 nM.

B8: 13E4-hIgG1-WT (antibody, V domains shown)
VH: B1 VH with Q1E, H35S
VL: B6 VL with S1H, L4V, S30N, V32A, H33Y, H48Y, G50D, D83G, S93N
notes: also called clone 13E4
As for B8, the EC50 in [23] was found to be 0.0938 nM; in [24] it was 0.0913 nM.

B9: 18B9His-hIgG1-ABDEG (antibody, V domains shown)
VH: B6 VH
VL: B6 VL
notes: also called 18B9His ABDEG; 18B9-hIgG1-ABDEG
With B9, the EC50 in test [21] came to 0.149 nM; in test [22], 0.119 nM.
